Assay [1] deals with CD80 on cynomolgus monkey blood cells (cynomolgus monkey (endogenous in blood cells)). The assay is described as follows: flow cytometry on cells.
For assay [2], the target named is CD86 on cynomolgus monkey blood cells (cynomolgus monkey (endogenous in blood cells)). In words: flow cytometry on cells.

Bounds are passed on as bounds.

Turning to “CTLA4‐Ig recombinant fusion protein (from UniProt P16410 36-161) (Fc fusion)”, in assay [1], the percent free CD80 of predose, Day 14, high dose (3 mg/kg) was 3%; the percent free CD80 of predose, Day 14, middle dose (0.3 mg/kg) is 42%; the percent suppression of free CD80 upon administration (all dose groups) is above 90%; the serum CTLA4‐Ig concentration at ∼90% target suppression came out at 0.18 µg/mL. Also, in assay [2], the percent free CD86 of predose, 4 h after the low dose (0.03 mg/kg) was found to be 67% and the serum CTLA4‐Ig concentration at ∼90% target suppression amounted to 33 µg/mL.

For the origin of these results see publication PMC5057311.
